We go through 7 molecules from patent US20230083243A1 (VEGA THERAPEUTICS, published 2023).

Changes are numbered by the printed parent chain.

Assay [1] has as its target T1, cynomolgus monkey Protein S (cynomolgus monkey).
T1 construct: also called cyno Protein S
Nature of the assay: BLI Octet; antibody on anti-human Fc probe; Protein S 7.81-500 nM; 4 mM CaCl2. The protocol: (§1) Binding characteristics of the Protein S antibodies were also further characterized using Octet. Using the Octet System (Sartorius), the binding of each antibody to both human and cynomolgus monkey (“cyno” in Table 10) Protein S was determined. The human Fc antibodies were immobilized onto anti-human Fc capture probes by placing the probes into 10 μg/ml antibody solution in 10 mg/ml bovine serum albumin, 20 mM Tris pH 7.0, 150 mM NaCl, and 4 mM calcium chloride. […] Next, the probes were placed into buffer and the dissociation rates were measured.

For assay [2], the target named is T2, human Protein S (human, UniProt P07225 42-676).
T2 construct: also called ProS; ProS1
T2 sequence: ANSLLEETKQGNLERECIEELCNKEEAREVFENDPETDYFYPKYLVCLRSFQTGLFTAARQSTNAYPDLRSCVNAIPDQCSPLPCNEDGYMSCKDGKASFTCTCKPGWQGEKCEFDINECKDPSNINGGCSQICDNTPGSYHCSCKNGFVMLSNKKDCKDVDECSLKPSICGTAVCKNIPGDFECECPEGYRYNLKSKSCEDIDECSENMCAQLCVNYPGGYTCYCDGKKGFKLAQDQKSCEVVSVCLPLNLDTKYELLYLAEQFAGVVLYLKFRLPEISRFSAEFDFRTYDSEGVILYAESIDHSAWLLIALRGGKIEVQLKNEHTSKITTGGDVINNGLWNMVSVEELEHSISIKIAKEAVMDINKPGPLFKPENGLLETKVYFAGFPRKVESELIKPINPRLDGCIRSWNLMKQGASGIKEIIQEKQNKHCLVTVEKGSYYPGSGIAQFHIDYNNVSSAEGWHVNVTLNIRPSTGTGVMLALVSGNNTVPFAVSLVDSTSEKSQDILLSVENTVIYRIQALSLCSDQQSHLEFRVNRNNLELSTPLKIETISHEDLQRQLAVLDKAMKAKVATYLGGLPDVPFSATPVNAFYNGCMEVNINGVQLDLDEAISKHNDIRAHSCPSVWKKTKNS
The assay is described as above. As for the experimental part:
as §1

The target in a further assay is T3, Protein S-C4BP complex (human, UniProt P04003 49-597; P20851 18-252).
T3 construct: C4BP preparation from Complement Technologies that contains Protein S precomplexed to human C4BP; also called ProS-C4BP Complex; C4BP-Protein S complex
T3 sequence 1: T2 sequence
T3 sequence 2: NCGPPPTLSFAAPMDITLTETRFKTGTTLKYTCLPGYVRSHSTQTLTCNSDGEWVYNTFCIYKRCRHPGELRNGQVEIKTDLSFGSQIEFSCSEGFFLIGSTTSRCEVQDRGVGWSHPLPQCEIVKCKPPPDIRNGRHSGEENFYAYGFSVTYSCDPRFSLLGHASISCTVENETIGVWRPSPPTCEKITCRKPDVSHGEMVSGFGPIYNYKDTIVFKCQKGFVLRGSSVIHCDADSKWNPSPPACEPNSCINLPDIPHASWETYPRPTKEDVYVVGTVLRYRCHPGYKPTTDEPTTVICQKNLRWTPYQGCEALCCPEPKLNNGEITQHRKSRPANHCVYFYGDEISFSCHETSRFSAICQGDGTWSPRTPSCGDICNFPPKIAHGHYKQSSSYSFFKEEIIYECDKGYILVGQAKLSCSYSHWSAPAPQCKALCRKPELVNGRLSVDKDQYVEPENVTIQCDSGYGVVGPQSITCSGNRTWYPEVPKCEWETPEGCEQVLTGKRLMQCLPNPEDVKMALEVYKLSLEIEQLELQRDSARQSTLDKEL
T3 sequence 3: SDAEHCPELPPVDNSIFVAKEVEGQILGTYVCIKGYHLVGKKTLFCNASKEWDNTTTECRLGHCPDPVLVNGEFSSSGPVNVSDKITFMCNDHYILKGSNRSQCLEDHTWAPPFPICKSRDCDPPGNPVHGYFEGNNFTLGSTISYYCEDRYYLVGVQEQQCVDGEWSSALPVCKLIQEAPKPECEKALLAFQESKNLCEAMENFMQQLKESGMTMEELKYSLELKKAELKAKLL
Nature of the assay: BLI Octet; antibody on anti-human Fc probe. The protocol: The Octet assay was used to determine the capability of the Protein S antibodies provided herein to bind to Protein S either alone, or when complexed to C4BP.
Using the Octet System (Sartorius), the binding of each antibody to both Protein S and Protein S in complex with C4BP was determined. It had previously been determined that the C4BP preparation from Complement Technologies contains Protein S precomplexed to human C4BP. Therefore, this preparation represented the Protein S-C4BP complex and plasma purified Protein S from Haematologic Technologies was used as the source of free Protein S. The human Fc antibodies were immobilized onto anti-human Fc capture probes by placing the probes into 10 μg/ml antibody solution in 10 mg/ml bovine serum albumin, 20 mM Tris pH 7.0, 150 mM NaCl, and 4 mM calcium chloride. Then the bound antibodies were placed into solutions containing either 75 μg/ml Protein S or 100 μg/ml C4BP (C4BP-Protein S complex).
A general note: BLI is a label-free optical method that tracks binding on a fibre tip over time.

For assay [3], the target named is T2, human Protein S. Nature of the assay: SPR Biacore X100; antibody captured by anti-human IgG (Fc); Protein S 2-128 nM; 5 mM CaCl2; 1:1 fit. The protocol:
Binding characteristics of the Protein S antibodies were also determined. Binding interaction analysis was obtained by Surface Plasmon Resonance in a Biacore X100 instrument. The human anti-IgG (Fc) antibody was immobilized to the carboxymethylated dextran membrane on the sensor chip surface (CM5) via the free amine method for a contact time of 420 seconds. Human anti-IgG antibody at 25 μg/mL in 0.15 M NaCl was immobilized to 9,785 RU in 10 mM sodium acetate pH 5.0.
Dilution and running buffer were as follows: Hbs−EP+5 mM CaCl₂. Regeneration was obtained by 3 M MgCl₂. Binding constants (ka, kd, and KD) were determined using the Biacore X100 evaluation software, assuming a 1:1 interaction of Protein S and the tested monoclonal antibody under investigation.
(In general: SPR reads the build-up and loss of mass on a sensor chip optically.)

For orientation: Kd means the free concentration of one partner at which half of the binding sites on the other are occupied at equilibrium, for simple one-to-one binding. A word on the koff: it is the first-order rate constant of dissociation. By kon is commonly meant the rate constant with which the complex forms.

B1: Antibody 25 (antibody, V domains shown)
VH: QVQLQESGPGLVKPSETLSLTCTVSGGSISGNYWSWIRQPPGKGLEWIGYIYYSGSTNYNPSLKSRVTISVDTSKNQFSLKLSSVTAADTAVYYCARDLDYFTWGAYSDWYFDLWGRGTLVTVSS
VL: DIQMTQSPSSLSASVGDRVTITCRASQSISTFLNWYQQKPGKAPKLLIYATSSLRSGVPSRFSGSGSGTDFTLTISSLQPEDFAIYYCQQSYSTPRTFGQGTQVEIK
notes: Same variable regions as Antibody 31
B1: in assay [1], the Kd was under 0.001 nM, the koff is under 1e-07 s⁻¹ and the kon is 124000 M⁻¹ s⁻¹. In the assay with human Protein S [2], this molecule came in with a Kd of under 0.001 nM, an off-rate constant (koff) of under 1e-07 s⁻¹ and a kon of 143000 M⁻¹ s⁻¹. Further, in the assay with Protein S-C4BP complex, the binding result is given as “no binding (tested: 100 µg/ml C4BP (C4BP-Protein S complex))”.

B2: Antibody 39 (antibody, V domains shown)
VH: EVQLVESGGGLVQPGGSLRLSCAASGFTFSSYSMNWVRQAPGKGLEWVAYISSSTRTIFYADSVKGRFTISRDNAKNSLYLQMNSLRDEDTAFYYCARERSAFDYWGQGTLVTVSS
VL: SYVLTQPPSVSVAPGQTARITCGGDNIGGKSVHWYQQKPGQAPVMVVYDDSDRPSGIPERFAGSNSGNTATLAISRVEAGDEADYYCQVWEITSDHPAFGGGTRLTVL
notes: Same variable regions as Antibody 40
In the case of B2, in assay [1], binding was put at a Kd of 0.419 nM, the koff was 8.02e-05 s⁻¹ and the kon is 191000 M⁻¹ s⁻¹. Further, in the assay with human Protein S [2], the dissociation constant (Kd) amounted to 0.25 nM, the koff came out at 5.84e-05 s⁻¹ and the association rate constant (kon) came to 234000 M⁻¹ s⁻¹. In addition, the binding result with Protein S-C4BP complex is listed as “no binding (tested: 100 µg/ml C4BP (C4BP-Protein S complex))”.

B3: Antibody 41 (antibody, V domains shown)
VH: QVQLVQSGSEVKKPGASVKVSCKASGYTFTNYYIHWVRQAPGQGLEWMGIITPSGGTTSYAQKFQGRVTMTRDTSTNTVYMGLSSLRSEDTAMYYCARAGVQLDRRGWFDPWGQGTLVTVSS
VL: SYELTQPPSVSVSPGQTASITCSGDKLGDKYVFWYQQKPGQSPVLVIYQDSKRPSGIPERFSGSNSGNTATLTISGTQTMDEADYYCQAWDSSTVGFGGGTKLAVL
notes: Same variable regions as Antibody 42
As to B3, in assay [1], binding was put at a Kd of 19.5 nM, the koff was 0.00188 s⁻¹ and the kon came out at 96400 M⁻¹ s⁻¹. In the assay with human Protein S [2], this molecule returned a dissociation constant (Kd) of 13.8 nM, a koff of 0.0011 s⁻¹ and a kon of 80000 M⁻¹ s⁻¹. Further, the binding result in the assay with Protein S-C4BP complex was “no binding (tested: 100 µg/ml C4BP (C4BP-Protein S complex))”.

B4: Antibody 11 (antibody, V domains shown)
VH: QVQLVQSGAEVKKPGASVKVSCKSSGHTFTGYYMHWVRQAPGQGLEWMGWINPNSGDTNYAQKFQGRVTMTRDTSISTAYMEMSRLRSDDTAVYYCARDSQILWFGELGYWGQGTLVTVSS
VL: QAVVTQESALTTSPGETVTLTCRSSTGAVTASNYANWVQEKPDHLFTGLIGSTNNRAPGVPARFSGSLIGDKAALTITGAQTEDEAIYFCALWYSDHFVFGGGTKLTVL
notes: Same variable regions as Antibody 23
B4: in assay [1], the Kd was under 0.001 nM, the koff was under 1e-07 s⁻¹ and the kon turned out to be 82100 M⁻¹ s⁻¹. Moreover, in the assay with human Protein S [2], the Kd is 0.399 nM, the koff amounted to 3.4e-05 s⁻¹ and the kon stood at 85200 M⁻¹ s⁻¹. Besides, in the assay with Protein S-C4BP complex, the binding result is given as “no binding (tested: 100 µg/ml C4BP (C4BP-Protein S complex))”. Also, in the assay with human Protein S [3], the Kd was determined as 9.6 nM, the koff came to 0.00113 s⁻¹ and the on-rate constant (kon) was determined as 116000 M⁻¹ s⁻¹.

B5: Antibody 29 (antibody, V domains shown)
VH: QLQLQESGPGLVKPSETLSLTCTVSGGSITNSNYYWGWIRQPPGKGLEWIGSVYYSGTTYYNPSLKSRVTISVDPSKNQFSLKLSSVTAADTAVYYCVRESESYYYYGSDVWGQGTTVTVSS
VL: DIQMTQSPSSLSASVGDRVTITCRASQGINNYLAWFQQKPGKAPKSLIYAASSLQSGVPSKFSGSGSGTDFTLTISSLQPEDFATYYCQQYNSYPRTFGQGTKVEIK
notes: Same variable regions as Antibody 35
Turning to B5, in assay [1], the Kd amounted to 20 nM, the koff stood at 0.00177 s⁻¹ and the kon came out at 88200 M⁻¹ s⁻¹. In the assay with human Protein S [2], this molecule registered a Kd of 21.1 nM, a koff of 0.00173 s⁻¹ and a kon of 81900 M⁻¹ s⁻¹. Also, the binding result with Protein S-C4BP complex is on record as “no binding (tested: 100 µg/ml C4BP (C4BP-Protein S complex))”.

B6: Antibody 30 (antibody, V domains shown)
VH: EVQLVESGGGLVKPGGSLRLSCAASGFTFSSYNMNWVRQAPGRGLDWVSSISSSSSYIYYADSVKGRFTISRDNAKNSLYLQMNTLRAEDTAVYYCARDEEWELLTGFDYWGQGTLVTVSS
VL: B5 VL with S53N, S60L, R96I, K103R, V104L
notes: Same variable regions as Antibody 36
B6: in assay [1], the Kd was found to be 20.9 nM, the koff was 0.00073 s⁻¹ and the kon came to 35000 M⁻¹ s⁻¹. For the same molecule, in the assay with human Protein S [2], the affinity, expressed as Kd, was 11.5 nM; the koff was found to be 0.000279 s⁻¹; the kon was 24200 M⁻¹ s⁻¹. Further, the binding result with Protein S-C4BP complex is on record as “no binding (tested: 100 µg/ml C4BP (C4BP-Protein S complex))”.

B7: Antibody 37 (antibody, V domains shown)
VH: EVQLVESGGGLVKPGGSLRLSCAASGISFSNAWMSWVRQAPGKGLEWVGRIKANPDGGTTDYAAPVKGRFTISRDDSKNTLYLQMNSLKTEDTAVYYCTTELDILLWFTSFDYWGQGTLVTVSS
VL: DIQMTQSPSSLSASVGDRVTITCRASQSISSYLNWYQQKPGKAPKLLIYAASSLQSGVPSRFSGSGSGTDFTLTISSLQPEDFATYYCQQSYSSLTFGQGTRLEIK
notes: Same variable regions as Antibody 38
In assay [1], B7 gave a Kd of 0.672 nM, a koff of 0.000119 s⁻¹ and a kon of 177000 M⁻¹ s⁻¹. In the assay with human Protein S [2], this molecule displayed a dissociation constant Kd of 0.382 nM, a koff of 8.32e-05 s⁻¹ and a kon of 218000 M⁻¹ s⁻¹. Moreover, in the assay with Protein S-C4BP complex, the binding result was “no binding (tested: 100 µg/ml C4BP (C4BP-Protein S complex))”.
